{
  "source": "paper PMC11980035",
  "about": "“Activation of automethylated PRC2 by dimerization on chromatin” (Molecular cell, 2024)",
  "molecular_target": "T1, Enhancer of zeste homolog 2 (EZH2), isoform 2, subunit of recombinant human PRC2, automethylated (human, UniProt Q15910-2 1-751, K510, K514 and K515 methylated to varying degrees (automethylation))",
  "T1 construct": "EZH2 isoform 2, human, full-length; Stood in the assay as a subunit of PRC2; also called EZH2^dist; EZH2^prox; source: as subunit of m1: HighFive / Trichoplusia ni insect cells, baculovirus, purified within PRC2",
  "T1 sequence (Q15910 other isoform, or with tags, fused parts or gaps)": "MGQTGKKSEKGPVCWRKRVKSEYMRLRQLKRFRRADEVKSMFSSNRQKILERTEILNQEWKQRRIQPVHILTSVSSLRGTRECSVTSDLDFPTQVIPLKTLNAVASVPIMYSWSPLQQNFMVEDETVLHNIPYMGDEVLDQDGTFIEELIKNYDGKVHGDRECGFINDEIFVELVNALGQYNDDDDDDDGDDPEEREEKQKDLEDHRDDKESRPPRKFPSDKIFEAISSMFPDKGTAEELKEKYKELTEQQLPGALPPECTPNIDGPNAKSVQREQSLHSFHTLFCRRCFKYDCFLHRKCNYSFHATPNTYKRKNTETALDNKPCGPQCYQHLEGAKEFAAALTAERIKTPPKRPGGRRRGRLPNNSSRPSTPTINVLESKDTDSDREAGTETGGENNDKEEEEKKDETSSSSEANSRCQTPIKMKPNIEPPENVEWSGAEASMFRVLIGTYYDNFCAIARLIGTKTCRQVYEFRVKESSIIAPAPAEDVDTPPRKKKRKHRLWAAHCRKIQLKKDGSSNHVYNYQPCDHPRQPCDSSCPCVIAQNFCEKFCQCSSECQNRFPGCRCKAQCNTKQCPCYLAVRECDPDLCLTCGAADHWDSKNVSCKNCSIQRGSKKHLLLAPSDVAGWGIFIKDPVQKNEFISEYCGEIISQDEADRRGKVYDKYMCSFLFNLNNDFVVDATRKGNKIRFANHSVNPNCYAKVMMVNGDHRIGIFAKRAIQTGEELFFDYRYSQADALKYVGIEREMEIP",
  "experiment": "cryo-EM structure; 800 nM automethylated PRC2 with 200 nM biotinylated nucleosome and 100 μM SAH in 25 mM HEPES pH 7.9, 50 mM KCl, 1 mM TCEP, 30 minutes at RT; nucleosome held on streptavidin affinity grids; classes of a PRC2 dimer and of a PRC2 monomer on the nucleosome",
  "settings": "both partners purified",
  "data": [
    {"binder": "Embryonic ectoderm development (EED), subunit of recombinant human PRC2 (natural protein, EED, human, full-length; Stood in the assay as a subunit of PRC2; also called EED^prox; EED^dist; source: as subunit of m1: HighFive / Trichoplusia ni insect cells, baculovirus, purified within PRC2) not shown", "values": [
      {"measurement": "binding result", "value": "binds"}
    ]}
  ]
}
